Experimental data as given in paper PMC4252516.

Molecular target: AbrBC, C-terminal multimerization domain of AbrB from Bacillus subtilis (residues 52-94) (Bacillus subtilis)
Assay: SEC

- stoichiometry N: 2
Substance: AbrBC, C-terminal multimerization domain of AbrB from Bacillus subtilis (residues 52-94) (domain or fragment)
